Legend:
[1] = target: mannose-6-phosphate receptor; assay: relative binding to mannose-6-phosphate receptor; method not given
[2] = target: mannose-6-phosphate receptor; assay: relative binding to mannose-6-phosphate receptor (Fabrazyme = 100); method not given

Molecule: Fabrazyme® (from UniProt P06280 32-429) (enzyme)
- Binding to M6Pr (%) [1]: 100%

B1: recombinant human α-galactosidase-A protein provided herein (FZ2G) (enzyme)
chain: LDNGLARTPTMGWLHWERFMCNLDCQEEPDSCISEKLFMEMAELMVSEGWKDAGYEYLCIDDCWMAPQRDSEGRLQADPQRFPHGIRQLANYVHSKGLKLGIYADVGNKTCAGFPGSFGYYDIDAQTFADWGVDLLKFDGCYCDSLENLADGYKHMSLALNRTGRSIVYSCEWPLYMWPFQKPNYTEIRQYCNHWRNFADIDDSWKSIKSILDWTSFNQERIVDVAGPGGWNDPDMLVIGNFGLSWNQQVTQMALWAIMAAPLFMSNDLRHISPQAKALLQDKDVIAINQDPLGKQGYQLRQGDNFEVWERPLSGLAWAVAMINRQEIGGPRSYTIAVASLGKGVACNPACFITQLLPVKRKLGFYEWTSRLRSHINPTGTVLLQLENTMQMSLKDLL
modifications: N-linked oligosaccharides (including mannose-6-phosphate and bis-mannose-6-phosphate oligosaccharides) at Asn108, Asn161 and Asn184
- Binding to M6Pr (%) [2]: 130%

Source: US20160264953A1
